The values below come from the PETadex activity labels (doi:10.1128/spectrum.00976-21).

Substrate in series [1]: pNP-C2
In words: Proxy for plastic degradation [Specific activity].

Substrate in series [2]: PET; PCL
In words: Proxy for plastic degradation [Titratable acid release]. To be noted: pH 7.5; 14 h.

B1: unnamed (protein)
chain: MVRVFGLTLLALLVPALAAPVPEDLEARQSGCADVMVVYARGTDQDSPIGDPASVGVLFRDNIKSLLGSRTFSFQGVNYAANVIGFLQGGDPAGSRQMTTDLTNVANSCPNAKIVSAGYSQGGQLVHNSAAQLTAAVRNRINAVVIFGDPKSDQAVTGIPSSNVKIICHDGDNICEGGFIVTSQHTNYQQDAPAAAQFVLSKV
Regarding B1, the “Proxy for plastic degradation” value in series [1] (pH 2) came to 0 U/mg; in series [1] (pH 3) it was 0 U/mg; in series [1] (pH 4) it was 0 U/mg; in series [1] (pH 5), 14500 U/mg; in series [1] (pH 6) it was 27500 U/mg; in series [1] (pH 7) it was 29500 U/mg. Moreover, the “Proxy for plastic degradation” value in series [1] (pH 7.5, 0 h) stood at 17500 U/mg; in series [1] (pH 7.5, 20 °C) it was 0 U/mg; in series [1] (pH 7.5, 30 °C), 22500 U/mg; in series [1] (pH 7.5, 40 °C), 32500 U/mg; in series [1] (pH 7.5, 50 °C), 20000 U/mg; in series [1] (pH 7.5, 60 °C), 300 U/mg. Moreover, the “Proxy for plastic degradation” value was found to be 0 U/mg in series [1] (pH 7.5, 70 °C); 0 U/mg in series [1] (pH 7.5, 80 °C); 19400 U/mg in series [1] (pH 7.5, 1 h); 22500 U/mg in series [1] (pH 7.5, 2 h); 35000 U/mg in series [1] (pH 7.5, 3 h); 25000 U/mg in series [1] (pH 7.5, 4 h). Also, the “Proxy for plastic degradation” value in series [1] (pH 7.5, 5 h) came to 18500 U/mg; in series [1] (pH 8) it was 32200 U/mg; in series [1] (pH 9), 10000 U/mg; in series [2], 10.9 mL.
